biological target: T1, OTULIN (OTU deubiquitinase with linear linkage specificity, FAM105B), His-tagged, biotin-labelled (human, UniProt Q96BN8 1-352, biotin (label; sites not stated)); experiment: peptide or protein array; HuProt human proteome microarray; 5 ug/5 ml biotin-labelled LUBAC or OTULIN in solution, 1 h at room temperature; Cy5-streptavidin, scanned at 635 nm; BSA as negative control; hits: Z-score >= 3 and I_(Mean_Ratio) >= 1.4; settings: both partners purified
T1 construct: OTULIN (FAM105B), cDNA in pET28a; also called HIS-OTULIN; source: E. coli BL21 (DE3), purified (His-tag Purification Resin), labelled with biotin; not shown: His6, N-terminal, kept

Binder	binding result
TTC9C (natural protein, human, UniProt Q8N5M4 1-171, looked up, TTC9C; protein on the human proteome microarray; source: spotted on the HuProt human proteome microarray) MEKRLQEAQLYKEEGNQRYREGKYRDAVSRYHRALLQLRGLDPSLPSPLPNLGPQGPALTPEQENILHTTQTDCYNNLAACLLQMEPVNYERVREYSQKVLERQPDNAKALYRAGVAFFHLQDYDQARHYLLAAVNRQPKDANVRRYLQLTQSELSSYHRKEKQLYLGMFG	binds
C21orf59 (natural protein, human, UniProt P57076 1-290, looked up, C21orf59; protein on the human proteome microarray; source: spotted on the HuProt human proteome microarray) MVLLHVKRGDESQFLLQAPGSTELEELTVQVARVYNGRLKVQRLCSEMEELAEHGIFLPPNMQGLTDDQIEELKLKDEWGEKCVPSGGAVFKKDDIGRRNGQAPNEKMKQVLKKTIEEAKAIISKKQVEAGVCVTMEMVKDALDQLRGAVMIVYPMGLPPYDPIRMEFENKEDLSGTQAGLNVIKEAEAQLWWAAKELRRTKKLSDYVGKNEKTKIIAKIQQRGQGAPAREPIISSEEQKQLMLYYHRRQEELKRLEENDDDAYLNSPWADNTALKRHFHGVKDIKWRPR	binds
TMEM116 (natural protein, human, UniProt Q8NCL8 1-245, looked up, TMEM116; protein on the human proteome microarray; source: spotted on the HuProt human proteome microarray) MKHTQSGQSTSPLVIDYTCRVCQMAFVFSSLIPLLLMTPVFCLGNTSECFQNFSQSHKCILMHSPPSAMAELPPSANTSVCSTLYFYGIAIFLGSFVLSLLTIMVLLIRAQTLYKKFVKSTGFLGSEQWAVIHIVDQRVRFYPVAFFCCWGPAVILMIIKLTKPQDTKLHMALYVLQALTATSQGLLNCGVYGWTQHKFHQLKQEARRDADTQTPLLCSQKRFYSRGLNSLESTLTFPASTSTIF	binds
C17orf82 (natural protein, human, UniProt Q86X59 1-251, looked up, C17orf82; protein on the human proteome microarray; source: spotted on the HuProt human proteome microarray) MGRPLEGQPLRALDLYPEPAFLRSGKDPKSSPASSPSFAVLGPEVRSTGGQAGSRRRPSAPCSQDRAAAEGAPALLGGSPSSGSPGHPPGSAFGVEAGCRALNVSEHARGGFALGLPFGLSGGAYLFLLLDGAGDPKPTPEAPISSADGRAWFPSESSWQLPQLPAGSTSGSEPRARPGLGPRQLLTGPRDGAAGQGPGRGLTARLGREREIDCGPRQAGHGGTATDTGRAGSGARHRPPRDRGTPGLRTH	binds
ALKBH3 (natural protein, human, UniProt Q96Q83 1-286, looked up, ALKBH3; protein on the human proteome microarray; source: spotted on the HuProt human proteome microarray) MEEKRRRARVQGAWAAPVKSQAIAQPATTAKSHLHQKPGQTWKNKEHHLSDREFVFKEPQQVVRRAPEPRVIDREGVYEISLSPTGVSRVCLYPGFVDVKEADWILEQLCQDVPWKQRTGIREDITYQQPRLTAWYGELPYTYSRITMEPNPHWHPVLRTLKNRIEENTGHTFNSLLCNLYRNEKDSVDWHSDDEPSLGRCPIIASLSFGATRTFEMRKKPPPEENGDYTYVERVKIPLDHGTLLIMEGATQADWQHRVPKEYHSREPRVNLTFRTVYPDPRGAPW	binds
BLVRB (natural protein, human, UniProt P30043 1-206, looked up, BLVRB; protein on the human proteome microarray; source: spotted on the HuProt human proteome microarray) MAVKKIAIFGATGQTGLTTLAQAVQAGYEVTVLVRDSSRLPSEGPRPAHVVVGDVLQAADVDKTVAGQDAVIVLLGTRNDLSPTTVMSEGARNIVAAMKAHGVDKVVACTSAFLLWDPTKVPPRLQAVTDDHIRMHKVLRESGLKYVAVMPPHIGDQPLTGAYTVTLDGRGPSRVISKHDLGHFMLRCLTTDEYDGHSTYPSHQYQ	binds
ALKBH2 (natural protein, human, UniProt Q6NS38 1-261, looked up, ALKBH2; protein on the human proteome microarray; source: spotted on the HuProt human proteome microarray) MDRFLVKGAQGGLLRKQEEQEPTGEEPAVLGGDKESTRKRPRREAPGNGGHSAGPSWRHIRAEGLDCSYTVLFGKAEADEIFQELEKEVEYFTGALARVQVFGKWHSVPRKQATYGDAGLTYTFSGLTLSPKPWIPVLERIRDHVSGVTGQTFNFVLINRYKDGCDHIGEHRDDERELAPGSPIASVSFGACRDFVFRHKDSRGKSPSRRVAVVRLPLAHGSLLMMNHPTNTHWYHSLPVRKKVLAPRVNLTFRKILLTKK	binds
ANXA3 (natural protein, human, UniProt P12429 1-323, looked up, ANXA3; protein on the human proteome microarray; source: spotted on the HuProt human proteome microarray) MASIWVGHRGTVRDYPDFSPSVDAEAIQKAIRGIGTDEKMLISILTERSNAQRQLIVKEYQAAYGKELKDDLKGDLSGHFEHLMVALVTPPAVFDAKQLKKSMKGAGTNEDALIEILTTRTSRQMKDISQAYYTVYKKSLGDDISSETSGDFRKALLTLADGRRDESLKVDEHLAKQDAQILYKAGENRWGTDEDKFTEILCLRSFPQLKLTFDEYRNISQKDIVDSIKGELSGHFEDLLLAIVNCVRNTPAFLAERLHRALKGIGTDEFTLNRIMVSRSEIDLLDIRTEFKKHYGYSLYSAIKSDTSGDYEITLLKICGGDD	binds
WBP2NL (natural protein, human, UniProt Q6ICG8 1-309, looked up, WBP2NL; protein on the human proteome microarray; source: spotted on the HuProt human proteome microarray) MAVNQSHTENRRGALIPNGESLLKRSPNVELSFPQRSEGSNVFSGRKTGTLFLTSYRVIFITSCSISDPMLSFMMPFDLMTNLTVEQPVFAANFIKGTIQAAPYGGWEGQATFKLVFRNGDAIEFAQLMVKAASAAARGFPLRTLNDWFSSMGIYVITGEGNMCTPQMPCSVIVYGAPPAGYGAPPPGYGAPPAGYGAQPVGNEGPPVGYRASPVRYGAPPLGYGAPPAGYGAPPLGYGAPPLGYGTPPLGYGAPPLGYGAPPAGNEGPPAGYRASPAGSGARPQESTAAQAPENEASLPSASSSQVHS	binds
TTC9 (natural protein, human, UniProt Q92623 1-222, looked up, TTC9; protein on the human proteome microarray; source: spotted on the HuProt human proteome microarray) MERKGSAAGAKGNPSPPAAGEGQRPPPPLCVPGGGGGAPARGQVGAAAEPAELIRRAHEFKSQGAQCYKDKKFREAIGKYHRALLELKGLLPPPGERERDSRPASPAGALKPGRLSEEQSKTVEAIEIDCYNSLAACLLQAELVNYERVKEYCLKVLKKEGENFKALYRSGVAFYHLGDYDKALYYLKEARTQQPTDTNVIRYIQLTEMKLSRCSQREKEAM	binds

Other lines, results leading:

binding result	Binder
binds	C1orf74 (natural protein, human, UniProt Q96LT6 1-269, looked up, C1orf74; protein on the human proteome microarray; source: spotted on the HuProt human proteome microarray) MLLLDLMSSPSPQLLVAAAQQTLGMGKRRSPPQAICLHLAGEVLAVARGLKPAVLYDCNCAGASELQSYLEELKGLGFLTFGLHILEIGENSLIVSPEHVCQHLEQVLLGTIAFVDVSSCQRHPSVCSLDQLQDLKALVAEIITHLQGLQRDLSLAVSYSRLHSSDWNLCTVFGILLGYPVPYTFHLNQGDDNCLALTPLRVFTARISWLLGQPPILLYSFSVPESLFPGLRDILNTWEKDLRTRFRTQNDFADLSISSEIVTLPAVAL
binds	XAGE3 (natural protein, human, UniProt Q8WTP9 1-111, looked up, XAGE3; protein on the human proteome microarray; source: spotted on the HuProt human proteome microarray) MIWRGRSTYRPRPRRSVPPPELIGPMLEPGDEEPQQEEPPTESRDPAPGQEREEDQGAAETQVPDLEADLQELSQSKTGGECGNGPDDQGKILPKSEQFKMPEGGDRQPQV
binds	TST (natural protein, human, UniProt Q16762 1-297, looked up, TST; protein on the human proteome microarray; source: spotted on the HuProt human proteome microarray) MVHQVLYRALVSTKWLAESIRTGKLGPGLRVLDASWYSPGTREARKEYLERHVPGASFFDIEECRDTASPYEMMLPSEAGFAEYVGRLGISNHTHVVVYDGEHLGSFYAPRVWWMFRVFGHRTVSVLNGGFRNWLKEGHPVTSEPSRPEPAVFKATLDRSLLKTYEQVLENLESKRFQLVDSRSQGRFLGTEPEPDAVGLDSGHIRGAVNMPFMDFLTEDGFEKGPEELRALFQTKKVDLSQPLIATCRKGVTACHVALAAYLCGKPDVAVYDGSWSEWFRRAPPESRVSQGKSEKA
binds	TK1 (natural protein, human, UniProt P04183 1-234, looked up, TK1; protein on the human proteome microarray; source: spotted on the HuProt human proteome microarray) MSCINLPTVLPGSPSKTRGQIQVILGPMFSGKSTELMRRVRRFQIAQYKCLVIKYAKDTRYSSSFCTHDRNTMEALPACLLRDVAQEALGVAVIGIDEGQFFPDIVEFCEAMANAGKTVIVAALDGTFQRKPFGAILNLVPLAESVVKLTAVCMECFREAAYTKRLGTEKEVEVIGGADKYHSVCRLCYFKKASGQPAGPDNKENCPVPGKPGEAVAARKLFAPQQILQCSPAN
binds	C11orf1 (natural protein, human, UniProt Q9H5F2 1-150, looked up, C11orf1; protein on the human proteome microarray; source: spotted on the HuProt human proteome microarray) MAASQCLCCSKFLFQRQNLACFLTNPHCGSLVNADGHGEVWTDWNNMSKFFQYGWRCTTNENTYSNRTLMGNWNQERYDLRNIVQPKPLPSQFGHYFETTYDTSYNNKMPLSTHRFKREPHWFPGHQPELDPPRYKCTEKSTYMNSYSKP
binds	BPHL (natural protein, human, UniProt Q86WA6 38-291, looked up, BPHL; protein on the human proteome microarray; source: spotted on the HuProt human proteome microarray) SVTSAKVAVNGVQLHYQQTGEGDHAVLLLPGMLGSGETDFGPQLKNLNKKLFTVVAWDPRGYGHSRPPDRDFPADFFERDAKDAVDLMKALKFKKVSLLGWSDGGITALIAAAKYPSYIHKMVIWGANAYVTDEDSMIYEGIRDVSKWSERTRKPLEALYGYDYFARTCEKWVDGIRQFKHLPDGNICRHLLPRVQCPALIVHGEKDPLVPRFHADFIHKHVKGSRLHLMPEGKHNLHLRFADEFNKLAEDFLQ

— publication PMC8274477 (Frontiers in Cell and Developmental Biology, 2021)
